The chains are these.
B1: G9a methyltransferase domain (aa residues 913-1193), Del 1163-4 (domain or fragment, human, UniProt Q96KQ7-1 913-1193, looked up)
chain: NRAIRTEKIICRDVARGYENVPIPCVNGVDGEPCPEDYKYISENCETSTMNIDRNITHLQHCTCVDDCSSSNCLCGQLSIRCWYDKDGRLLQEFNKIEPPLIFECNQACSCWRNCKNRVVQSGIKVRLQLYRTAKMGWGVRALQTIPQGTFICEYVGELISDAEADVREDDSYLFDLDNKDGEVYCIDARYYGNISRFINHLCDPNIIPVRVFMLHQDLRFPRIAFFSSRDIRTGEELGFDYGDRFWDIKYFTCQCGSEKCKHSAEAIALEQSRLARLD
notes: G9a (EHMT2), human, methyltransferase (SET) domain, aa residues 913-1193, patient variant; numbered on NP_006700.3; De novo patient variant made by site-directed mutagenesis; also called p.Ser1163_Lys1164del; c.3487_3492del; source: E. coli BL21-CodonPlus (DE3)-RIPL, pET28a, purified (IMAC, TEV cleavage, SEC, second IMAC); not shown: His6, N-terminal, cleaved
B2: G9a methyltransferase domain (aa residues 913-1193), Del 1076-9 (domain or fragment, human, UniProt Q96KQ7-1 913-1193, looked up)
chain: NRAIRTEKIICRDVARGYENVPIPCVNGVDGEPCPEDYKYISENCETSTMNIDRNITHLQHCTCVDDCSSSNCLCGQLSIRCWYDKDGRLLQEFNKIEPPLIFECNQACSCWRNCKNRVVQSGIKVRLQLYRTAKMGWGVRALQTIPQGTFICEYVGELISDAREDDSYLFDLDNKDGEVYCIDARYYGNISRFINHLCDPNIIPVRVFMLHQDLRFPRIAFFSSRDIRTGEELGFDYGDRFWDIKSKYFTCQCGSEKCKHSAEAIALEQSRLARLD
notes: G9a (EHMT2), human, methyltransferase (SET) domain, aa residues 913-1193, patient variant; numbered on NP_006700.3; also called p.Glu1076_Val1079del; c.3225_3236del; source: E. coli BL21-CodonPlus (DE3)-RIPL, pET28a, purified (IMAC, TEV cleavage, SEC, second IMAC); not shown: His6, N-terminal, cleaved
B3: G9a methyltransferase domain (aa residues 913-1193), K1162R (domain or fragment, human, UniProt Q96KQ7-1 913-1193, looked up)
chain: NRAIRTEKIICRDVARGYENVPIPCVNGVDGEPCPEDYKYISENCETSTMNIDRNITHLQHCTCVDDCSSSNCLCGQLSIRCWYDKDGRLLQEFNKIEPPLIFECNQACSCWRNCKNRVVQSGIKVRLQLYRTAKMGWGVRALQTIPQGTFICEYVGELISDAEADVREDDSYLFDLDNKDGEVYCIDARYYGNISRFINHLCDPNIIPVRVFMLHQDLRFPRIAFFSSRDIRTGEELGFDYGDRFWDIRSKYFTCQCGSEKCKHSAEAIALEQSRLARLD
notes: G9a (EHMT2), human, methyltransferase (SET) domain, aa residues 913-1193, patient variant; numbered on NP_006700.3; De novo patient variant made by site-directed mutagenesis; also called p.Lys1162Arg; c.3485A>G; source: E. coli BL21-CodonPlus (DE3)-RIPL, pET28a, purified (IMAC, TEV cleavage, SEC, second IMAC); not shown: His6, N-terminal, cleaved
B4: G9a methyltransferase domain (aa residues 913-1193), wild type (domain or fragment, human, UniProt Q96KQ7-1 913-1193, looked up)
chain: NRAIRTEKIICRDVARGYENVPIPCVNGVDGEPCPEDYKYISENCETSTMNIDRNITHLQHCTCVDDCSSSNCLCGQLSIRCWYDKDGRLLQEFNKIEPPLIFECNQACSCWRNCKNRVVQSGIKVRLQLYRTAKMGWGVRALQTIPQGTFICEYVGELISDAEADVREDDSYLFDLDNKDGEVYCIDARYYGNISRFINHLCDPNIIPVRVFMLHQDLRFPRIAFFSSRDIRTGEELGFDYGDRFWDIKSKYFTCQCGSEKCKHSAEAIALEQSRLARLD
notes: G9a (EHMT2), human, methyltransferase (SET) domain, aa residues 913-1193; variants numbered on NP_006700.3; His tag removed by TEV protease; also called EHMT2; euchromatin histone lysine methyltransferase 2; source: E. coli BL21-CodonPlus (DE3)-RIPL, pET28a, purified (IMAC, TEV cleavage, SEC, second IMAC); not shown: His6, N-terminal, cleaved
B5: G9a methyltransferase domain (aa residues 913-1193), A1077T (domain or fragment, human, UniProt Q96KQ7-1 913-1193, looked up)
chain: NRAIRTEKIICRDVARGYENVPIPCVNGVDGEPCPEDYKYISENCETSTMNIDRNITHLQHCTCVDDCSSSNCLCGQLSIRCWYDKDGRLLQEFNKIEPPLIFECNQACSCWRNCKNRVVQSGIKVRLQLYRTAKMGWGVRALQTIPQGTFICEYVGELISDAETDVREDDSYLFDLDNKDGEVYCIDARYYGNISRFINHLCDPNIIPVRVFMLHQDLRFPRIAFFSSRDIRTGEELGFDYGDRFWDIKSKYFTCQCGSEKCKHSAEAIALEQSRLARLD
notes: G9a (EHMT2), human, methyltransferase (SET) domain, aa residues 913-1193, patient variant; numbered on NP_006700.3; De novo patient variant made by site-directed mutagenesis; also called p.Ala1077Thr; c.3229G>A; source: E. coli BL21-CodonPlus (DE3)-RIPL, pET28a, purified (IMAC, TEV cleavage, SEC, second IMAC); not shown: His6, N-terminal, cleaved
B6: G9a methyltransferase domain (aa residues 913-1193), N1112S (domain or fragment, human, UniProt Q96KQ7-1 913-1193, looked up)
chain: NRAIRTEKIICRDVARGYENVPIPCVNGVDGEPCPEDYKYISENCETSTMNIDRNITHLQHCTCVDDCSSSNCLCGQLSIRCWYDKDGRLLQEFNKIEPPLIFECNQACSCWRNCKNRVVQSGIKVRLQLYRTAKMGWGVRALQTIPQGTFICEYVGELISDAEADVREDDSYLFDLDNKDGEVYCIDARYYGNISRFISHLCDPNIIPVRVFMLHQDLRFPRIAFFSSRDIRTGEELGFDYGDRFWDIKSKYFTCQCGSEKCKHSAEAIALEQSRLARLD
notes: G9a (EHMT2), human, methyltransferase (SET) domain, aa residues 913-1193, patient variant; numbered on NP_006700.3; De novo patient variant made by site-directed mutagenesis; also called p.Asn1112Ser; c.3335A>G; source: E. coli BL21-CodonPlus (DE3)-RIPL, pET28a, purified (IMAC, TEV cleavage, SEC, second IMAC); not shown: His6, N-terminal, cleaved
B7: G9a methyltransferase domain (aa residues 913-1193), A1077S (domain or fragment, human, UniProt Q96KQ7-1 913-1193, looked up)
chain: NRAIRTEKIICRDVARGYENVPIPCVNGVDGEPCPEDYKYISENCETSTMNIDRNITHLQHCTCVDDCSSSNCLCGQLSIRCWYDKDGRLLQEFNKIEPPLIFECNQACSCWRNCKNRVVQSGIKVRLQLYRTAKMGWGVRALQTIPQGTFICEYVGELISDAESDVREDDSYLFDLDNKDGEVYCIDARYYGNISRFINHLCDPNIIPVRVFMLHQDLRFPRIAFFSSRDIRTGEELGFDYGDRFWDIKSKYFTCQCGSEKCKHSAEAIALEQSRLARLD
notes: G9a (EHMT2), human, methyltransferase (SET) domain, aa residues 913-1193, patient variant; numbered on NP_006700.3; De novo patient variant made by site-directed mutagenesis; also called p.Ala1077Ser; c.3229G>T; source: E. coli BL21-CodonPlus (DE3)-RIPL, pET28a, purified (IMAC, TEV cleavage, SEC, second IMAC); not shown: His6, N-terminal, cleaved
B8: G9a methyltransferase domain (aa residues 913-1193), F1158L (domain or fragment, human, UniProt Q96KQ7-1 913-1193, looked up)
chain: NRAIRTEKIICRDVARGYENVPIPCVNGVDGEPCPEDYKYISENCETSTMNIDRNITHLQHCTCVDDCSSSNCLCGQLSIRCWYDKDGRLLQEFNKIEPPLIFECNQACSCWRNCKNRVVQSGIKVRLQLYRTAKMGWGVRALQTIPQGTFICEYVGELISDAEADVREDDSYLFDLDNKDGEVYCIDARYYGNISRFINHLCDPNIIPVRVFMLHQDLRFPRIAFFSSRDIRTGEELGFDYGDRLWDIKSKYFTCQCGSEKCKHSAEAIALEQSRLARLD
notes: G9a (EHMT2), human, methyltransferase (SET) domain, aa residues 913-1193, patient variant; numbered on NP_006700.3; De novo patient variant made by site-directed mutagenesis; also called p.Phe1158Leu; c.3472T>C; source: E. coli BL21-CodonPlus (DE3)-RIPL, pET28a, purified (IMAC, TEV cleavage, SEC, second IMAC); not shown: His6, N-terminal, cleaved
B9: GLP methyltransferase domain (aa 1001-1266), wild type (domain or fragment, human, UniProt Q9H9B1-1 1001-1266, looked up)
chain: DRPSPVERIVSRDIARGYERIPIPCVNAVDSEPCPSNYKYVSQNCVTSPMNIDRNITHLQYCVCIDDCSSSNCMCGQLSMRCWYDKDGRLLPEFNMAEPPLIFECNHACSCWRNCRNRVVQNGLRARLQLYRTRDMGWGVRSLQDIPPGTFVCEYVGELISDSEADVREEDSYLFDLDNKDGEVYCIDARFYGNVSRFINHHCEPNLVPVRVFMAHQDLRFPRIAFFSTRLIEAGEQLGFDYGERFWDIKGKLFSCRCGSPKCRHS
notes: GLP (EHMT1), human, methyltransferase (SET) domain, aa 1001-1266; NM_024757.5 is printed for the EHMT1 variant of the Kleefstra syndrome 1 patient, not expressly for this construct; also called EHMT1; euchromatin histone lysine methyltransferase 1; source: E. coli BL21-CodonPlus (DE3)-RIPL, pET28a, purified (IMAC, TEV cleavage, SEC, second IMAC); not shown: His6, N-terminal, cleaved

This data set deals with the molecule itself. In words: native MS; dimerization of apo proteins: 5 µM protein in 150 mM ammonium acetate pH 7.5, 0.5 mM DTT; monomer-dimer distribution quantified.
One may read the stoichiometry N as a count of units in the complex or per binding partner. For B1, the “stoichiometry N” value came to 2.

Take B2: the “stoichiometry N” value was 2.

Turning to B3, the “stoichiometry N” value was 2.

Regarding B4, the “stoichiometry N” value was 2.

For the protein B5, the “stoichiometry N” value amounted to 2.

In the case of B6, the “stoichiometry N” value was determined as 2.

Take B7: the “stoichiometry N” value came to 2.

For the protein B8, the “stoichiometry N” value was found to be 2.

For the protein B9, the “stoichiometry N” value is 2.

Source of the values: article PMC13462943, “De novo EHMT2 variants cause an autosomal dominant EHMT2-related Kleefstra syndrome via loss of G9a methyltransferase activity” (Nature Communications, 2026).
